Laboratory results as given in publication PMC6789926.

B1: mouse ephrin-A2 (soluble, Fc-conjugated) (Fc fusion)
chain: RNEDPARANADRYAVYWNRSNPRFQVSAVGDGGGYTVEVSINDYLDIYCPHYGAPLPPAERMERYILYMVNGEGHASCDHRQRGFKRWECNRPAAPGGPLKFSEKFQLFTPFSLGFEFRPGHEYYYISATPPNLVDRPCLRLKVYVRPTNETLYEAPEPIFTSN
B2: mouse ephrin-A1 (soluble, Fc-conjugated) (Fc fusion)
chain: ADRHIVFWNSSNPKFREEDYTVHVQLNDYLDIICPHYEDDSVADAAMERYTLYMVEHQEYVACQPQSKDQVRWNCNRPSAKHGPEKLSEKFQRFTPFILGKEFKEGHSYYYISKPIYHQESQCLKLKVTVNGKITHNPQAHVNPQEKRLQADDPEVQVLHSIGYS
B3: human ephrin-A5 (soluble, Fc-conjugated) (Fc fusion)
chain: QDPGSKAVADRYAVYWNSSNPRFQRGDYHIDVCINDYLDVFCPHYEDSVPEDKTERYVLYMVNFDGYSACDHTSKGFKRWECNRPHSPNGPLKFSEKFQLFTPFSLGFEFRPGREYFYISSAIPDNGRRSCLKLKVFVRPTNSCMKTIGVHDRVFDVNDKVENSLEPADDTVHESAEPSRGEN

Molecular target: tetrameric soluble CedV G (sG) (Cedar virus)
Experiment: SPR

Compared with “mouse ephrin-B2 (soluble, Fc-conjugated) (from UniProt P52800 29-232) (Fc fusion)”, human ephrin-A1 Fc (Fc fusion) is 7500-fold higher in Kd: 0.56 nM for the first, 4210 nM for the second. The first binds more tightly here.

First: mouse ephrin-B1 (soluble, Fc-conjugated) (from UniProt P52795 25-345) (Fc fusion)
Second: B1
The Kd of the first is 820-fold lower: 0.24 nM for the first, 196 nM for the second.

First: B2
Second: B3
The Kd of the first is 4.6-fold lower: 24.5 nM for the first, 113 nM for the second.

Going from “mouse ephrin-B2 (soluble, Fc-conjugated) (from UniProt P52800 29-232) (Fc fusion)” to human ephrin-A1 Fc (Fc fusion), the koff rises from 0.00103 s⁻¹ to 0.00981 s⁻¹ (9.5-fold).

Compared with “mouse ephrin-B1 (soluble, Fc-conjugated) (from UniProt P52795 25-345) (Fc fusion)”, B1 is 22-fold higher in koff: 0.00029 s⁻¹ for the first, 0.00636 s⁻¹ for the second.

First: B2
Second: B3
The koff of the first is 2.3-fold higher: 0.00179 s⁻¹ for the first, 0.00079 s⁻¹ for the second.

First: mouse ephrin-B2 (soluble, Fc-conjugated) (from UniProt P52800 29-232) (Fc fusion)
Second: B1
The kon of the first is 57-fold higher: 1.84e+06 M⁻¹ s⁻¹ for the first, 32400 M⁻¹ s⁻¹ for the second.

For B2, the kon was 73900 M⁻¹ s⁻¹.
